This is an account of results in US9744212B2, “Galectin-3C combination therapy for human cancer” (Texas Tech University System, priority 2011, dated 2017).

Data set [1] has as its system HUVEC. Put plainly: Vascular endothelial cell viability assay. The class given is cell-based, human. The conditions noted are these: 48 h. As to the method:
FIGS. 4A and 4B are graphs of the data from the vascular endothelial cell viability assay. […] The graphs show mean values and error bars represent 95% C.I. **=ANOVA Tukey's post test p<O.Ol. n.s.=not significant. […] Viability was measured as described for the U266 cells. […] Results obtained from the HUVEC viability studies that were run in triplicate are depicted in FIGS. 4A-B, and are presented as a percentage of control (untreated) cells.
EXAMPLE 3 illustrates Gal-3C inhibits proliferation of MM cells. Cell Proliferation (Viability) Assays. Cell proliferation was assessed with a ViaLight Plus Cell Proliferation and Cytotoxicity BioAssay Kit (Lonza, Walkersville, Md., USA) according to the directions of the manufacturer. In brief, myeloma cells were seeded (8,000 per well) in 50 μL of RPMI-1640 with 10% heat-inactivated FBS (growth medium) in 96-well plates. HUVEC cells were seeded (10,000/well) in 50 μl EGM-2 medium in 96-well plates. Gal-3C (2× concentration) in 50 μL of growth medium was added to triplicate wells and the plate kept at the CO2 incubator at 37° C. for 48 hour. For the ViaLight assay, 50 μL of lysis buffer was added to each well, the plate was incubated for 10 minutes, after which 50 μL of cell lysate from each well was transferred to a solid white Lumitrac-200 plate and 50 μL of reconstituted AMR Plus was added. Luminescence was measured with a 1-s integrated setting in a Berthold luminometer after 2 minutes. With Alamar Blue, 10 μL of reagent was added per well and the plate kept in the CO2 incubator for 4 hours. Fluorescence intensity was measured at 590-nm on a Polarstar Galaxy (BMG Labtech, Cary, N.C.) microplate reader. The blank (growth media with 10 μl Alamar Blue) was subtracted from the raw fluorescence to obtain adjusted fluorescence readings. Triplicate data points were analyzed and the data shown are representative of 3 or more studies.

Data set [2] concerns HUVEC. Put plainly: HUVEC tubule formation assay on Matrigel with U266 conditioned media. The class given is cell-based, human. The note with it: 20% V/V conditioned medium of U266 treated 48 h with 10 μg/mL Gal-3C, 5 nM Bor or both; 16-hour incubation. The procedure:
HUVEC Tubule Formation Assay. A tubule formation assay was performed in vitro as described (86) to measure angiogenesis. Briefly, growth factor-reduced Matrigel (Becton Dickinson) was allowed to polymerize in the presence of 30 ng/mL recombinant basic fibroblastic growth factor (bFGF; R&D Systems) for 1 hour at 37° C.
FIG. 5 is an image of the results from the In vitro tubule formation assay having 6 regions. Serum-starved HUVEC were allowed to form tubules on a […]™ surface in the presence of VEGF (positive control), EMB-2 medium alone (negative control), or EBM-2 supplemented with 20% V/V U266 conditioned media (c.m.). […] To evaluate the effect of different treatments on the ability of U266 cells to induce angiogenesis, a […]™-based tubule formation assay was performed in the presence of U266 conditioned media as described for the chemotaxis assay. Serum-starved (5×103) HUVEC were seeded on the […]™ surface in 200-μL EBM-2 medium supplemented with 20% V/V conditioned medium. Pictures were taken after 16-hour incubation in 5% CO2 at 37° C. The assay was run in triplicate and representative images are depicted in FIG. 5. As a positive control, EBM-2 medium supplemented with 20 ng/mL VEGF was used.

Data set [3] relates to U266 MM subcutaneous tumors. Put plainly: U266 subcutaneous tumor model of MM in NOD/SCID mice. In kind it is in vivo, mouse. The note with it: for mean difference of tumor volume between Gal-3C and Bor: Gal-3C lower than Bor, P<0.001.
Protocol: Testing Gal-3C and Bonin NOD/SCID mouse model of MM: Prior to injection, U266 cells were washed once in Dulbecco's PBS (Sigma-Aldrich), counted, and adjusted to the appropriate density with additional PBS prior to inoculation. PBS containing a suspension of 1×10^7 U266 cells was injected subcutaneously into the abdomen of naive NOD/SCID mice. The primary tumors were measured with a pair of calipers once a week. Tumor volume was calculated by the formula width 2×length×0.5, where width was the smallest dimension. The mice were randomly divided into four groups with five mice in each group after 14 days. Control group #1 was subcutaneously implanted in the abdomen with a PBS-only containing 200-μl mini-osmotic pump. Group #2 received a dose of Gal-3C (30 μg/d/mouse) subcutaneously over a 16-day period for a total of 500 μg via a 200-μl mini-osmotic pump implanted abdominally. Group #3 was treated with six doses of 15 μg Bonin 50-μl injections via the tail vein on days 1-2, 8-9, and 15-16 for a total of 90 μg. Group #4 received Gal-3C via mini-pump for a total dose of 500 μg Gal-3C (30 μg/d/mouse) plus a total 90 μg Bor in 21 days. Anesthetized animals were euthanized and a post-mortem examination was conducted on the whole animals and dissected organs after 35 days.
In data set [4] the test system is human breast cancer. The conditions noted are these: mouse model of human breast cancer, reference (60); cited from earlier work.
The test system of data set [5] is VEGF. Kind of data set: ELISA of VEGF in U266 cell-conditioned medium. The conditions noted are these: 48-hour culture with 10 μg/mL Gal-3C, 5 nM Bor or both. In kind it is cell-based, human. The procedure: ELISA of VEGF and bFGF Levels. The levels of VEGF and bFGF were measured by direct ELISA as follows. Flat-bottom 96-well polycarbonate plates were coated at 4° C. with 50 μL/well cell culture supernatants diluted 1:25 in carbonate coating buffer (0.1 M NaHCO3, […]) at 4° C. overnight. Standard curves were obtained with purified recombinant human VEGF and bFGF (both from R&D Systems) serially diluted in coating buffer (10-fold serial dilutions from 1,000 to 0 ng/mL). After removing diluted supernatants or standards, and blocking with PBS supplemented with 1% W/V BSA for 1 hour at room temperature, plates were incubated for 1 hour at room temperature with mouse anti-human VEGF or rabbit anti-human bFGF primary antibodies (2 μg/mL in PBS, 50 μL/well Abeam, Mass., USA). Then, plates were washed twice with PBS with 0.025% V/V Tween-20 (300 μL/well) and incubated at room temperature with anti-mouse or anti-rabbit HRP-labeled secondary antibodies (0.2 μg/mL in PBS, 50 μL/well Abeam, Mass., USA) for 1 hour. The plates were washed thrice with PBS containing 0.025% V/V Tween-20 (300 μL/well), the TMB colorimetric substrate (Thermo Fisher Scientific, Waltham, Mass., USA) was added, and after 5 minutes the absorbance was measured (0.1 s) at 450 nm on a Victor 2 multimodal microplate reader (PerkinElmer, Billerica, Mass., USA). All samples were run in triplicates. […]
For orientation: In an ELISA, binding on a coated surface is turned into a signal by an enzyme label.

B1: Gal-3C: N-terminally truncated human galectin-3 consisting of 143 carboxy-terminal amino acid residues, SEQ ID NO: 1 (protein)
chain: GAPAGPLIVPYNLPLPGGVVPRMLITILGTVKPNANRIALDFQRGNDVAFHFNPRFNENNRRVIVCNTKLDNNWGREERQSVFPFESGKPFKIQVLVEPDHFKVAVNDAHLLQYNHRVKKLNEISKLGISGDIDITSASYTMI
With B1, the “effect on HUVEC viability” value in data set [1] (at the concentration used in the chemotaxis and angiogenesis assays (Gal-3C 2 μg/ml, Bor 1 nM)) was “did not display significant effects”; in data set [1] (at the highest concentrations), “mild effect”. Moreover, the “potential of U266 cells for induction of angiogenesis (tubule formation)” value in data set [2] is “almost completely impaired”. The “mean difference of tumor volume between Gal-3C and Bor” value is listed as 4.431±1.494 mm^3 in data set [3] (day 21) and 31.54±4.379 mm3 in data set [3] (day 35). The “average tumor volume relative to that of the untreated controls” value in data set [3] (day 35, Gal-3C 30 μg/d/mouse by mini-osmotic pump, Bor six doses of 15 μg via tail vein) came to 13.5%. The adverse side effects result in data set [4] is “no evidence of adverse side effects”. Moreover, the “tumor growth and metastasis” value in data set [4] was “inhibited tumor growth and metastasis”. Further, the “VEGF levels in U266 conditioned medium” value in data set [5] is listed as “significantly reduced”.
